Results reported in paper PMC13252954.

Legend:
[1] = molecular target: integrin αIIbβ3 (human (endogenous in platelets)) (UniProt P08514)
[2] = molecular target: PII SVMP zymogen (Venom metalloprotease PII-SVMP EOC00006, Echis ocellatus) (Echis ocellatus); experiment: SEC + other: non-reducing SDS-PAGE
[3] = molecular target: PIΔC SVMP metalloproteinase (MP) domain (Echis ocellatus); experiment: SEC

Sequence of UniProt P08514 (P08514 32-1039, chain 1 of 2): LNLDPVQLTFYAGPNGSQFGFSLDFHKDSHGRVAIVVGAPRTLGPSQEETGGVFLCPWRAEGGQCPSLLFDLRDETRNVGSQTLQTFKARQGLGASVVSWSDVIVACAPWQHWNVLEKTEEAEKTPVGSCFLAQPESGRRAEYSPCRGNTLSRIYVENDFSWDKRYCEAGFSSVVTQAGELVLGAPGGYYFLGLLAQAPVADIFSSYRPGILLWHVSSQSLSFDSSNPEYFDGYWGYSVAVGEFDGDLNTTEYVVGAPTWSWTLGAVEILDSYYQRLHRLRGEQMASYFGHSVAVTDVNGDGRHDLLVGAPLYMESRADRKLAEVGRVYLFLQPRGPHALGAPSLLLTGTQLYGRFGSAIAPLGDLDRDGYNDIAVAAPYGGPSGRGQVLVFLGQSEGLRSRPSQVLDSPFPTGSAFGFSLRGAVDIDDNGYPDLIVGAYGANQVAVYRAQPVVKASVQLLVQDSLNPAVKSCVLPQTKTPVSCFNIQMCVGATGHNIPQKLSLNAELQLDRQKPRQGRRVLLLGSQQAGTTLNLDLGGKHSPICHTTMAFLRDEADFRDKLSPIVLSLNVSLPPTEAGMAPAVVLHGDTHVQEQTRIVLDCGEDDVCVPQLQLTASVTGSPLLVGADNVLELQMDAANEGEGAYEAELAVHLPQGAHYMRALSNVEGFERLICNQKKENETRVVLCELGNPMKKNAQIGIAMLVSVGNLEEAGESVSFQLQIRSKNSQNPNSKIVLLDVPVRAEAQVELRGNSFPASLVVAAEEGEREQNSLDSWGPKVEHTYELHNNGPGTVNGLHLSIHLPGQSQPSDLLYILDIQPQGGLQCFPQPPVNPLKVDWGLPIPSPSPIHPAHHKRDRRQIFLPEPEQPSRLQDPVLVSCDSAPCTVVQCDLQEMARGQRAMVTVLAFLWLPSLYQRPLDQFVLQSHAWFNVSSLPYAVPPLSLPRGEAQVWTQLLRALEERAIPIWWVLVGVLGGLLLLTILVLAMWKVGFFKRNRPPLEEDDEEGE
Sequence of UniProt P08514 (P05106 27-788, chain 2 of 2, further chain): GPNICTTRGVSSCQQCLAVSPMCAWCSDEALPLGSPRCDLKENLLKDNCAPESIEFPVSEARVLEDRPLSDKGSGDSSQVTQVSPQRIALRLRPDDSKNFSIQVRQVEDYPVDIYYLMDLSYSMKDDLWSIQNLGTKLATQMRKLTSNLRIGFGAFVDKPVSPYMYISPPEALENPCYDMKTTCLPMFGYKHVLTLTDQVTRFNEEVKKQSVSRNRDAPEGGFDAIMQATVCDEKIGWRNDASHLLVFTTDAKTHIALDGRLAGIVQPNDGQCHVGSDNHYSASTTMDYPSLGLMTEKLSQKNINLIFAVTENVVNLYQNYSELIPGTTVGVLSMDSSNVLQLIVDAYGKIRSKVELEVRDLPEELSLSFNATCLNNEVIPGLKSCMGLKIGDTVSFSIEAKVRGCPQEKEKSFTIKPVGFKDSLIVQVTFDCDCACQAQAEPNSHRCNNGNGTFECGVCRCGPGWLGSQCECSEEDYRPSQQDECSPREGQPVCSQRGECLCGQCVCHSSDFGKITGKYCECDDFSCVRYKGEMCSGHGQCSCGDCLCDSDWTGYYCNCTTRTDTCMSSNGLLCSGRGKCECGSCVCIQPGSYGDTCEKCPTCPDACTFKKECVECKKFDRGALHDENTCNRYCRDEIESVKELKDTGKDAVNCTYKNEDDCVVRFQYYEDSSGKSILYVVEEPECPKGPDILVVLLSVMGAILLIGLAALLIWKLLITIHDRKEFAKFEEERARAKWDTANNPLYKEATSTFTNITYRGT

With activated PII SVMP (enzyme) the 2-MeS-ADP-induced platelet aggregation in human platelet-rich plasma (plate aggregometry), % aggregation at 500 nM SVMP (% aggregation) [1] was 12.

With “PII SVMP zymogen (Venom metalloprotease PII-SVMP EOC00006, Echis ocellatus) (from UniProt A0A3G1E3U2 1-494) (enzyme)” the stoichiometry N [2] was 2.

PI SVMP prodomain (domain or fragment) showed a stoichiometry N [3] of 1.
